# Measurements taken from article PMC5345052, “Auto-phosphorylation Represses Protein Kinase R Activity” (Scientific Reports, 2017).
# T1: truncated phosphor-transfer mutant PKR kinase domain (KD-K296R) with N-terminal split Venus V2 tag, P19525
# T1 chain: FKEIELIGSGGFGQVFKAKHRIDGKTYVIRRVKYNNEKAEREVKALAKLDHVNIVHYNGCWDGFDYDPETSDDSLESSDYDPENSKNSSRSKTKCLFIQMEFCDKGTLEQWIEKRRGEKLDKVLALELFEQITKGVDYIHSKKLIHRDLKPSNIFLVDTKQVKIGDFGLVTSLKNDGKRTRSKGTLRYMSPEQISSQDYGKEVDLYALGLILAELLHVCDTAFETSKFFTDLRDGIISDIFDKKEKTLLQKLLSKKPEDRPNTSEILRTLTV
# T2: kinase-dead PKR (K296R), recombinant His-tagged full-length protein kinase R (human), P19525
# T2 chain: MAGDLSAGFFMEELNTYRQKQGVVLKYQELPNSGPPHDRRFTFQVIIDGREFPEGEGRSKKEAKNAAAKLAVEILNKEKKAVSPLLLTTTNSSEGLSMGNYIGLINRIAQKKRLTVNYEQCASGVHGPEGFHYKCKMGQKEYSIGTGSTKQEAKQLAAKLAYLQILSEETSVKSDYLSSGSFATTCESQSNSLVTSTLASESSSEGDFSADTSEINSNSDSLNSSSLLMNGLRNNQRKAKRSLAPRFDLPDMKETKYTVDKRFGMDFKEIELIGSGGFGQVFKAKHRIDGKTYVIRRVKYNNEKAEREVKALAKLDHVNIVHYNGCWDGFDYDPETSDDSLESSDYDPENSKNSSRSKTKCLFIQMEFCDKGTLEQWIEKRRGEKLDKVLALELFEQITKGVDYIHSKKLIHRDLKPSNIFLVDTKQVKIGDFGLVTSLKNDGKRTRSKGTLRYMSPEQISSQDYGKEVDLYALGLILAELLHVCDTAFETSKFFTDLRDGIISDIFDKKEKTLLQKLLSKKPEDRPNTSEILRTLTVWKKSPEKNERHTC
# Assays:
# [1] = biological target: truncated PKR kinase domain with N-terminal split Venus V2 tag (UniProt P19525); test: split Venus fluorescence complementation in HEK293 cells; settings: 20 ng/well of each plasmid construct, read off a plot
# [2] = biological target: truncated phosphor-transfer mutant PKR kinase domain (KD-K296R) with N-terminal split Venus V2 tag (UniProt P19525); test: as above; settings: 20 ng/well of each plasmid construct; partner kinase domain carries K296R; n = 5; parent: est. 3.0; read off a plot
# [3] = biological target: PKR RNA-binding domain with C-terminal split Venus V1 tag; test: as above; settings: 20 ng/well of each plasmid construct; n = 5; parent: est. 2.9; read off a plot
# [4] = biological target: T1, truncated phosphor-transfer mutant PKR …; test: as above; settings: chain shown with the change; 20 ng/well of full-length PKR and 30 ng/well of the truncated KD; partner kinase domain carries K296R; n = 7; parent: est. 4.2; read off a plot
# [5] = biological target: T2, kinase-dead PKR (K296R), recombinant …; test: liquid chromatography; recombinant PKR isolated during purification as separate monomer and dimer species; settings: remark: other sources report otherwise
# [6] = 5 μM 2-aminopurine (2AP), n = 6, parent: est. 3.8
molecule,measurement,setting,value
PKR RNA-binding domain with C-terminal split Venus V1 tag S33E; T42E,response,[1]; [6],3.1
same,response,"[1]; n = 7, parent: est. 2.9",2.5
same,response,[2],2.6
truncated PKR kinase domain with N-terminal split Venus V2 tag (from UniProt P19525) K296R,response,[3],3
PKR RNA-binding domain with C-terminal split Venus V1 tag S33A; T42A,response,[1]; [6],4.3
same,response,"[1]; n = 7, parent: est. 2.9",2.9
same,response,[2],3.5
"full-length PKR with N-terminal split Venus V1 tag, P19525 H37R; S33A; T42A (protein) MAGDLSAGFFMEELNTYRQKQGVVLKYQELPNAGPPRDRRFAFQVIIDGREFPEGEGRSKKEAKNAAAKLAVEILNKEKKAVSPLLLTTTNSSEGLSMGNYIGLINRIAQKKRLTVNYEQCASGVHGPEGFHYKCKMGQKEYSIGTGSTKQEAKQLAAKLAYLQILSEETSVKSDYLSSGSFATTCESQSNSLVTSTLASESSSEGDFSADTSEINSNSDSLNSSSLLMNGLRNNQRKAKRSLAPRFDLPDMKETKYTVDKRFGMDFKEIELIGSGGFGQVFKAKHRIDGKTYVIKRVKYNNEKAEREVKALAKLDHVNIVHYNGCWDGFDYDPETSDDSLESSDYDPENSKNSSRSKTKCLFIQMEFCDKGTLEQWIEKRRGEKLDKVLALELFEQITKGVDYIHSKKLIHRDLKPSNIFLVDTKQVKIGDFGLVTSLKNDGKRTRSKGTLRYMSPEQISSQDYGKEVDLYALGLILAELLHVCDTAFETSKFFTDLRDGIISDIFDKKEKTLLQKLLSKKPEDRPNTSEILRTLTVWKKSPEKNERHTC",response,[4],21
"full-length PKR with N-terminal split Venus V1 tag, P19525 S33E; T42E; K261D (protein) MAGDLSAGFFMEELNTYRQKQGVVLKYQELPNEGPPHDRRFEFQVIIDGREFPEGEGRSKKEAKNAAAKLAVEILNKEKKAVSPLLLTTTNSSEGLSMGNYIGLINRIAQKKRLTVNYEQCASGVHGPEGFHYKCKMGQKEYSIGTGSTKQEAKQLAAKLAYLQILSEETSVKSDYLSSGSFATTCESQSNSLVTSTLASESSSEGDFSADTSEINSNSDSLNSSSLLMNGLRNNQRKAKRSLAPRFDLPDMKETKYTVDDRFGMDFKEIELIGSGGFGQVFKAKHRIDGKTYVIKRVKYNNEKAEREVKALAKLDHVNIVHYNGCWDGFDYDPETSDDSLESSDYDPENSKNSSRSKTKCLFIQMEFCDKGTLEQWIEKRRGEKLDKVLALELFEQITKGVDYIHSKKLIHRDLKPSNIFLVDTKQVKIGDFGLVTSLKNDGKRTRSKGTLRYMSPEQISSQDYGKEVDLYALGLILAELLHVCDTAFETSKFFTDLRDGIISDIFDKKEKTLLQKLLSKKPEDRPNTSEILRTLTVWKKSPEKNERHTC",response,[4],3.6
"full-length PKR with N-terminal split Venus V1 tag, P19525 S33E; T42E; R262D (protein) MAGDLSAGFFMEELNTYRQKQGVVLKYQELPNEGPPHDRRFEFQVIIDGREFPEGEGRSKKEAKNAAAKLAVEILNKEKKAVSPLLLTTTNSSEGLSMGNYIGLINRIAQKKRLTVNYEQCASGVHGPEGFHYKCKMGQKEYSIGTGSTKQEAKQLAAKLAYLQILSEETSVKSDYLSSGSFATTCESQSNSLVTSTLASESSSEGDFSADTSEINSNSDSLNSSSLLMNGLRNNQRKAKRSLAPRFDLPDMKETKYTVDKDFGMDFKEIELIGSGGFGQVFKAKHRIDGKTYVIKRVKYNNEKAEREVKALAKLDHVNIVHYNGCWDGFDYDPETSDDSLESSDYDPENSKNSSRSKTKCLFIQMEFCDKGTLEQWIEKRRGEKLDKVLALELFEQITKGVDYIHSKKLIHRDLKPSNIFLVDTKQVKIGDFGLVTSLKNDGKRTRSKGTLRYMSPEQISSQDYGKEVDLYALGLILAELLHVCDTAFETSKFFTDLRDGIISDIFDKKEKTLLQKLLSKKPEDRPNTSEILRTLTVWKKSPEKNERHTC",response,[4],12
"full-length PKR with N-terminal split Venus V1 tag, P19525 H37R (protein) MAGDLSAGFFMEELNTYRQKQGVVLKYQELPNSGPPRDRRFTFQVIIDGREFPEGEGRSKKEAKNAAAKLAVEILNKEKKAVSPLLLTTTNSSEGLSMGNYIGLINRIAQKKRLTVNYEQCASGVHGPEGFHYKCKMGQKEYSIGTGSTKQEAKQLAAKLAYLQILSEETSVKSDYLSSGSFATTCESQSNSLVTSTLASESSSEGDFSADTSEINSNSDSLNSSSLLMNGLRNNQRKAKRSLAPRFDLPDMKETKYTVDKRFGMDFKEIELIGSGGFGQVFKAKHRIDGKTYVIKRVKYNNEKAEREVKALAKLDHVNIVHYNGCWDGFDYDPETSDDSLESSDYDPENSKNSSRSKTKCLFIQMEFCDKGTLEQWIEKRRGEKLDKVLALELFEQITKGVDYIHSKKLIHRDLKPSNIFLVDTKQVKIGDFGLVTSLKNDGKRTRSKGTLRYMSPEQISSQDYGKEVDLYALGLILAELLHVCDTAFETSKFFTDLRDGIISDIFDKKEKTLLQKLLSKKPEDRPNTSEILRTLTVWKKSPEKNERHTC",response,[4],3.8
"full-length PKR with N-terminal split Venus V1 tag, P19525 K261D (protein) MAGDLSAGFFMEELNTYRQKQGVVLKYQELPNSGPPHDRRFTFQVIIDGREFPEGEGRSKKEAKNAAAKLAVEILNKEKKAVSPLLLTTTNSSEGLSMGNYIGLINRIAQKKRLTVNYEQCASGVHGPEGFHYKCKMGQKEYSIGTGSTKQEAKQLAAKLAYLQILSEETSVKSDYLSSGSFATTCESQSNSLVTSTLASESSSEGDFSADTSEINSNSDSLNSSSLLMNGLRNNQRKAKRSLAPRFDLPDMKETKYTVDDRFGMDFKEIELIGSGGFGQVFKAKHRIDGKTYVIKRVKYNNEKAEREVKALAKLDHVNIVHYNGCWDGFDYDPETSDDSLESSDYDPENSKNSSRSKTKCLFIQMEFCDKGTLEQWIEKRRGEKLDKVLALELFEQITKGVDYIHSKKLIHRDLKPSNIFLVDTKQVKIGDFGLVTSLKNDGKRTRSKGTLRYMSPEQISSQDYGKEVDLYALGLILAELLHVCDTAFETSKFFTDLRDGIISDIFDKKEKTLLQKLLSKKPEDRPNTSEILRTLTVWKKSPEKNERHTC",response,[4],3.4
"full-length PKR with N-terminal split Venus V1 tag, P19525 H37R; S33E; T42E (protein) MAGDLSAGFFMEELNTYRQKQGVVLKYQELPNEGPPRDRRFEFQVIIDGREFPEGEGRSKKEAKNAAAKLAVEILNKEKKAVSPLLLTTTNSSEGLSMGNYIGLINRIAQKKRLTVNYEQCASGVHGPEGFHYKCKMGQKEYSIGTGSTKQEAKQLAAKLAYLQILSEETSVKSDYLSSGSFATTCESQSNSLVTSTLASESSSEGDFSADTSEINSNSDSLNSSSLLMNGLRNNQRKAKRSLAPRFDLPDMKETKYTVDKRFGMDFKEIELIGSGGFGQVFKAKHRIDGKTYVIKRVKYNNEKAEREVKALAKLDHVNIVHYNGCWDGFDYDPETSDDSLESSDYDPENSKNSSRSKTKCLFIQMEFCDKGTLEQWIEKRRGEKLDKVLALELFEQITKGVDYIHSKKLIHRDLKPSNIFLVDTKQVKIGDFGLVTSLKNDGKRTRSKGTLRYMSPEQISSQDYGKEVDLYALGLILAELLHVCDTAFETSKFFTDLRDGIISDIFDKKEKTLLQKLLSKKPEDRPNTSEILRTLTVWKKSPEKNERHTC",response,[4],3.1
"full-length PKR with N-terminal split Venus V1 tag, P19525 R262D (protein) MAGDLSAGFFMEELNTYRQKQGVVLKYQELPNSGPPHDRRFTFQVIIDGREFPEGEGRSKKEAKNAAAKLAVEILNKEKKAVSPLLLTTTNSSEGLSMGNYIGLINRIAQKKRLTVNYEQCASGVHGPEGFHYKCKMGQKEYSIGTGSTKQEAKQLAAKLAYLQILSEETSVKSDYLSSGSFATTCESQSNSLVTSTLASESSSEGDFSADTSEINSNSDSLNSSSLLMNGLRNNQRKAKRSLAPRFDLPDMKETKYTVDKDFGMDFKEIELIGSGGFGQVFKAKHRIDGKTYVIKRVKYNNEKAEREVKALAKLDHVNIVHYNGCWDGFDYDPETSDDSLESSDYDPENSKNSSRSKTKCLFIQMEFCDKGTLEQWIEKRRGEKLDKVLALELFEQITKGVDYIHSKKLIHRDLKPSNIFLVDTKQVKIGDFGLVTSLKNDGKRTRSKGTLRYMSPEQISSQDYGKEVDLYALGLILAELLHVCDTAFETSKFFTDLRDGIISDIFDKKEKTLLQKLLSKKPEDRPNTSEILRTLTVWKKSPEKNERHTC",response,[4],13
"kinase-dead PKR (K296R), recombinant His-tagged full-length protein kinase R, P19525 1-551 (enzyme) MAGDLSAGFFMEELNTYRQKQGVVLKYQELPNSGPPHDRRFTFQVIIDGREFPEGEGRSKKEAKNAAAKLAVEILNKEKKAVSPLLLTTTNSSEGLSMGNYIGLINRIAQKKRLTVNYEQCASGVHGPEGFHYKCKMGQKEYSIGTGSTKQEAKQLAAKLAYLQILSEETSVKSDYLSSGSFATTCESQSNSLVTSTLASESSSEGDFSADTSEINSNSDSLNSSSLLMNGLRNNQRKAKRSLAPRFDLPDMKETKYTVDKRFGMDFKEIELIGSGGFGQVFKAKHRIDGKTYVIRRVKYNNEKAEREVKALAKLDHVNIVHYNGCWDGFDYDPETSDDSLESSDYDPENSKNSSRSKTKCLFIQMEFCDKGTLEQWIEKRRGEKLDKVLALELFEQITKGVDYIHSKKLIHRDLKPSNIFLVDTKQVKIGDFGLVTSLKNDGKRTRSKGTLRYMSPEQISSQDYGKEVDLYALGLILAELLHVCDTAFETSKFFTDLRDGIISDIFDKKEKTLLQKLLSKKPEDRPNTSEILRTLTVWKKSPEKNERHTC",stoichiometry N,[5],2
